Reference: patent US20220267460A1 (MOMENTA PHARMACEUTICALS, published 2022)

T1: human FcγRIIa-H variant (Histidine at amino acid 131) (human, UniProt P12318 34-317)
T1 sequence (looked up): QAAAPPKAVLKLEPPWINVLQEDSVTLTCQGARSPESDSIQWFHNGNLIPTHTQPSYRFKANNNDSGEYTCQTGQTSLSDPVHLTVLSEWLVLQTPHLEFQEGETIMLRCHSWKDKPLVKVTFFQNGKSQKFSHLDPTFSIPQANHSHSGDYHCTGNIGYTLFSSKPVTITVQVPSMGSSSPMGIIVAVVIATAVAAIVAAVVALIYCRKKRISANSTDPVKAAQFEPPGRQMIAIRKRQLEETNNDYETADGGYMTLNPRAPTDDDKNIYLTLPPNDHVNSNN

B1: Fc-antigen binding domain construct 43 (PD-L1) (antibody, human IgG1, lambda)
heavy 1: not shown
chain: not shown
heavy 2: not shown
light: QSALTQPASVSGSPGQSITISCTGTSSDVGGYNYVSWYQQHPGKAPKLMIYDVSNRPSGVSNRFSGSKSGNTASLTISGLQAEDEADYYCSSYTSSSTRVFGTGTKVTVLGQPKANPTVTLFPPSSEELQANKATLVCLISDFYPGAVTVAWKADGSPVKAGVETTKPSKQSNNKYAASSYLSLTPEQWKSHRSYSCQVTHEGSTVEKTVAPTECS
B2: Fc-antigen binding domain construct 44 (PD-L1) (antibody, human IgG1, lambda)
heavy 1: not shown
chain: not shown
heavy 2: not shown
light: B1 light
B3: Fc-antigen binding domain construct 43 (CD20) (antibody, human IgG1, kappa)
heavy 1: QVQLVQSGAEVKKPGSSVKVSCKASGYAFSYSWINWVRQAPGQGLEWMGRIFPGDGDTDYNGKFKGRVTITADKSTSTAYMELSSLRSEDTAVYYCARNVFDGYWLVYWGQGTLVTVSSASTKGPSVFPLAPSSKSTSGGTAALGCLVKDYFPEPVTVSWNSGALTSGVHTFPAVLQSSGLYSLSSVVTVPSSSLGTQTYICNVNHKPSNTKVDKKVEPKSCDKTHTCPPCPAPELLGGPSVFLFPPKPKDTLMISRTPEVTCVVVDVSHEDPEVKFNWYVDGVEVHNAKTKPREEQYNSTYRVVSVLTVLHQDWLNGKEYKCKVSNKALPAPIEKTISKAKGQPREPQVYTLPPCRDKLTKNQVSLWCLVKGFYPSDIAVEWESNGQPENNYKTTPPVLDSDGSFFLYSKLTVDKSRWQQGNVFSCSVMHEALHNHYTQKSLSLSPGKGGGGGGGGGGGGGGGGGGGGDKTHTCPPCPAPELLGGPSVFLFPPKPKDTLMISRTPEVTCVVVDVSHEDPEVKFNWYVDGVEVHNAKTKPREEQYNSTYRVVSVLTVLHQDWLNGKEYKCKVSNKALPAPIEKTISKAKGQPREPQVYTLPPSRKELTKNQVSLTCLVKGFYPSDIAVEWESNGQPENNYKTTPPVLKSDGSFFLYSKLTVDKSRWQQGNVFSCSVMHEALHNHYTQKSLSLSPGQ
chain: not shown
heavy 2: not shown
light: DIVMTQTPLSLPVTPGEPASISCRSSKSLLHSNGITYLYWYLQKPGQSPQLLIYQMSNLVSGVPDRFSGSGSGTDFTLKISRVEAEDVGVYYCAQNLELPYTFGGGTKVEIKRTVAAPSVFIFPPSDEQLKSGTASVVCLLNNFYPREAKVQWKVDNALQSGNSQESVTEQDSKDSTYSLSSTLTLSKADYEKHKVYACEVTHQGLSSPVTKSFNRGEC
B4: Fc-antigen binding domain construct 44 (CD20) (antibody, human IgG1, kappa)
heavy 1: QVQLVQSGAEVKKPGSSVKVSCKASGYAFSYSWINWVRQAPGQGLEWMGRIFPGDGDTDYNGKFKGRVTITADKSTSTAYMELSSLRSEDTAVYYCARNVFDGYWLVYWGQGTLVTVSSASTKGPSVFPLAPSSKSTSGGTAALGCLVKDYFPEPVTVSWNSGALTSGVHTFPAVLQSSGLYSLSSVVTVPSSSLGTQTYICNVNHKPSNTKVDKKVEPKSCDKTHTCPPCPAPELLGGPSVFLFPPKPKDTLMISRTPEVTCVVVDVSHEDPEVKFNWYVDGVEVHNAKTKPREEQYNSTYRVVSVLTVLHQDWLNGKEYKCKVSNKALPAPIEKTISKAKGQPREPQVYTLPPCRDKLTKNQVSLWCLVKGFYPSDIAVEWESNGQPENNYKTTPPVLDSDGSFFLYSKLTVDKSRWQQGNVFSCSVMHEALHNHYTQKSLSLSPGKGGGGGGGGGGGGGGGGGGGGDKTHTCPPCPAPELLGGPSVFLFPPKPKDTLMISRTPEVTCVVVDVSHEDPEVKFNWYVDGVEVHNAKTKPREEQYNSTYRVVSVLTVLHQDWLNGKEYKCKVSNKALPAPIEKTISKAKGQPREPQVYTLPPSRKELTKNQVSLTCLVKGFYPSDIAVEWESNGQPENNYKTTPPVLKSDGSFFLYSKLTVDKSRWQQGNVFSCSVMHEALHNHYTQKSLSLSPGQKGGGGGGGGGGGGGGGGGGGGDKTHTCPPCPAPELLGGPSVFLFPPKPKDTLMISRTPEVTCVVVDVSHEDPEVKFNWYVDGVEVHNAKTKPREEQYNSTYRVVSVLTVLHQDWLNGKEYKCKVSNKALPAPIEKTISKAKGQPREPQVYTLPPSRKELTKNQVSLTCLVKGFYPSDIAVEWESNGQPENNYKTTPPVLKSDGSFFLYSKLTVDKSRWQQGNVFSCSVMHEALHNHYTQKSLSLSPGQ
chain: not shown
heavy 2: not shown
light: B3 light

How the values were obtained:
Assay in all cases: cell-based or functional assay
FcγRIIIa [1] = molecular target: T2, FcγRIIIa (UniProt P08637 17-254)
T2 sequence (P08637 17-254 F176V limits assumed): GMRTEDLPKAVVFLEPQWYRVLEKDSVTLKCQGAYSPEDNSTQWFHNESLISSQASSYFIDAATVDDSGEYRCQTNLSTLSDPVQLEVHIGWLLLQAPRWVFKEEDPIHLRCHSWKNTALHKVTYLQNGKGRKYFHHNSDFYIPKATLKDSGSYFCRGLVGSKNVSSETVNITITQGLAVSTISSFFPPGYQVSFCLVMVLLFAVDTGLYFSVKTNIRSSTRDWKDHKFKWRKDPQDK

[2] = molecular target: T1, human FcγRIIa-H variant (Histidine at …)
[3] = molecular target: T1, human FcγRIIa-H variant (Histidine at …); remark: listed apart in the source
FcγRIIIa [4] = molecular target: T2, FcγRIIIa; remark: listed apart in the source

Binder	EC50 (nM) Mean, FcγRIIIa signaling in ADCC reporter assay (HEK-PD-L1 target cells, Jurkat/FcγRIIIa effector cells, luciferase) (FcγRIIIa [1]) [nM]	EC50 (nM) Mean, FcγRIIa signaling in ADCP reporter assay (HEK-PD-L1 target cells, Jurkat/FcγRIIa-H effector cells, luciferase) [2] [nM]	EC50 (nM) Mean, FcγRIIa signaling in ADCP reporter assay (Raji target cells, Jurkat/FcγRIIa-H effector cells, luciferase) [3] [nM]	EC50 (nM) Mean, FcγRIIIa signaling in ADCC reporter assay (Raji target cells, Jurkat/FcγRIIIa effector cells, luciferase) (FcγRIIIa [4]) [nM]
B1	0.028	0.037	–	–
B2	–	0.033	–	–
B3	–	–	7.8	0.86
B4	–	–	0.17	0.055
